Laboratory results from patent US20140087995A1 (published 2014).
Numbered stars: 1 amine (or outer) side, 2 acyl side, 3 side chain; on linkers, the order of the positions; unused ones are H or OH. Bridge positions count the residues as written; N and C are the ends. Side chains are listed from the residue outwards. Ends that are not written are not given here. * marks the point of attachment. C20 diacid = O=C(O)CCCCCCCCCCCCCCCCCCC(=O)*; γGlu = O=C(O)[C@H](CCC(=O)[*:2])N[*:1]

T1: human amylin receptor (amylin 3(a) receptor: human calcitonin receptor co-expressed with RAMP-3) (human, UniProt P30988 25-474; O60896 24-148, limits assumed)
T1 sequence (looked up) 1: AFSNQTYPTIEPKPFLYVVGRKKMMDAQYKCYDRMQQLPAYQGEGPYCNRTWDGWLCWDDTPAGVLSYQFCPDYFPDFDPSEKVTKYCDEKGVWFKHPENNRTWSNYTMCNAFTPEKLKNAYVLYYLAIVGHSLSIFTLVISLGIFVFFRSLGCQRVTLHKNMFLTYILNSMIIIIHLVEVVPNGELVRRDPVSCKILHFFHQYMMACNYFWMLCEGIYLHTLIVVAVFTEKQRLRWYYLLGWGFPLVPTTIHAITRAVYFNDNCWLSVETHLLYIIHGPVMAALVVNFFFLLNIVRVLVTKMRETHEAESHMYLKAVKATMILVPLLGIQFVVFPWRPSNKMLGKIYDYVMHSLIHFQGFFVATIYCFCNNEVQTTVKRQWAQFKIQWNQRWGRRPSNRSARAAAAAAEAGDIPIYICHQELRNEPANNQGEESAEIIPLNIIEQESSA
T1 sequence (looked up) 2: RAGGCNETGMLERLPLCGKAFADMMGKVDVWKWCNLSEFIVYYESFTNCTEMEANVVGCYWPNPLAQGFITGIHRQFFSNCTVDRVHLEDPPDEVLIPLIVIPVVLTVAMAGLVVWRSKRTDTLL

T2: human calcitonin receptor (human, UniProt P30988 25-474)
T2 sequence (looked up): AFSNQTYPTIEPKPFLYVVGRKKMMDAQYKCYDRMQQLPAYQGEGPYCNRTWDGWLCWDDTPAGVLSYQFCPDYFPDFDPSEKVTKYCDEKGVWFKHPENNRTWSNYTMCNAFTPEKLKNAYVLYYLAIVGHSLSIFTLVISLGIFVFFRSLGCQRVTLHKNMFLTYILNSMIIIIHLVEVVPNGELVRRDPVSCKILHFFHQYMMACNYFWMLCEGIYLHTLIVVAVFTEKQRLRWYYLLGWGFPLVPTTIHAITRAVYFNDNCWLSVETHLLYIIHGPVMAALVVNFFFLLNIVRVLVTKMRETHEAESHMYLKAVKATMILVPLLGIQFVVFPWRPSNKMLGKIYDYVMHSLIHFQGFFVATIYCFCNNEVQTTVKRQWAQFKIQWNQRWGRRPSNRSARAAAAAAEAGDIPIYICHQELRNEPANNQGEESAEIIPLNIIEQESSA


Columns and labels:
[1] = target: T1, human amylin receptor (amylin 3(a) …); assay: cell-based or functional assay
[2] = target: T2, human calcitonin receptor; assay: cell-based or functional assay

| Binder | hAmylin-R funct. EC50 [1] [pM] | Ratio hCT/hAmylin funct. (hCTR EC50 against hAmylin-R EC50) [2] | hCTR funct. EC50 [2] [pM] |
| --- | --- | --- | --- |
| K([γGlu-C20 diacid])CNTATCATQRLANFLRHSSPNFGAIPSSTNVGHNTY-NH2 (disulfide 2-7; N-terminus assumed; SMILES CC[C@H](C)[C@H](NC(=O)[C@H](C)NC(=O)CNC(=O)[C@H](Cc1ccccc1)NC(=O)[C@H](CC(N)=O)NC(=O)[C@@H]1CCCN1C(=O)[C@H](CO)NC(=O)[C@H](CO)NC(=O)[C@H](Cc1c[nH]cn1)NC(=O)[C@H](CCCNC(=N)N)NC(=O)[C@H](CC(C)C)NC(=O)[C@H](Cc1ccccc1)NC(=O)[C@H](CC(N)=O)NC(=O)[C@H](C)NC(=O)[C@H](CC(C)C)NC(=O)[C@H](CCCNC(=N)N)NC(=O)[C@H](CCC(N)=O)NC(=O)[C@@H](NC(=O)[C@H](C)NC(=O)[C@@H]1CSSC[C@H](NC(=O)[C@@H](N)CCCCNC(=O)CC[C@H](NC(=O)CCCCCCCCCCCCCCCCCCC(=O)O)C(=O)O)C(=O)N[C@@H](CC(N)=O)C(=O)N[C@@H]([C@@H](C)O)C(=O)N[C@@H](C)C(=O)N[C@@H]([C@@H](C)O)C(=O)N1)[C@@H](C)O)C(=O)N1CCC[C@H]1C(=O)N[C@@H](CO)C(=O)N[C@@H](CO)C(=O)N[C@H](C(=O)N[C@@H](CC(N)=O)C(=O)N[C@H](C(=O)NCC(=O)N[C@@H](Cc1c[nH]cn1)C(=O)N[C@@H](CC(N)=O)C(=O)N[C@H](C(=O)N[C@@H](Cc1ccc(O)cc1)C(N)=O)[C@@H](C)O)C(C)C)[C@@H](C)O, also called compound 77) [N^ε1-[(4S)-4-carboxy-4-(19-carboxynonadecanoylamino)butanoyl]-[Arg17,Pro21,Pro27,His34]-h-amylin] | 145 | 37.3 | 5400 |
| K([γGlu-C20 diacid])CNTATCATQRLANFLRHSSPNFGAIPSSTNVGSHTY-NH2 (disulfide 2-7; N-terminus assumed; SMILES CC[C@H](C)[C@H](NC(=O)[C@H](C)NC(=O)CNC(=O)[C@H](Cc1ccccc1)NC(=O)[C@H](CC(N)=O)NC(=O)[C@@H]1CCCN1C(=O)[C@H](CO)NC(=O)[C@H](CO)NC(=O)[C@H](Cc1c[nH]cn1)NC(=O)[C@H](CCCNC(=N)N)NC(=O)[C@H](CC(C)C)NC(=O)[C@H](Cc1ccccc1)NC(=O)[C@H](CC(N)=O)NC(=O)[C@H](C)NC(=O)[C@H](CC(C)C)NC(=O)[C@H](CCCNC(=N)N)NC(=O)[C@H](CCC(N)=O)NC(=O)[C@@H](NC(=O)[C@H](C)NC(=O)[C@@H]1CSSC[C@H](NC(=O)[C@@H](N)CCCCNC(=O)CC[C@H](NC(=O)CCCCCCCCCCCCCCCCCCC(=O)O)C(=O)O)C(=O)N[C@@H](CC(N)=O)C(=O)N[C@@H]([C@@H](C)O)C(=O)N[C@@H](C)C(=O)N[C@@H]([C@@H](C)O)C(=O)N1)[C@@H](C)O)C(=O)N1CCC[C@H]1C(=O)N[C@@H](CO)C(=O)N[C@@H](CO)C(=O)N[C@H](C(=O)N[C@@H](CC(N)=O)C(=O)N[C@H](C(=O)NCC(=O)N[C@@H](CO)C(=O)N[C@@H](Cc1c[nH]cn1)C(=O)N[C@H](C(=O)N[C@@H](Cc1ccc(O)cc1)C(N)=O)[C@@H](C)O)C(C)C)[C@@H](C)O, also called compound 60) [N^ε1-[(4S)-4-carboxy-4-(19-carboxynonadecanoylamino)butanoyl]-[Arg17,Pro21,Pro27,His35]-h-amylin] | 351 | 15.3 | 5360 |
| K([γGlu-C20 diacid])CNTATCATQRLAHFLRHSSPNFGAIPSSTPVGSNTY-NH2 (disulfide 2-7; N-terminus assumed; SMILES CC[C@H](C)[C@H](NC(=O)[C@H](C)NC(=O)CNC(=O)[C@H](Cc1ccccc1)NC(=O)[C@H](CC(N)=O)NC(=O)[C@@H]1CCCN1C(=O)[C@H](CO)NC(=O)[C@H](CO)NC(=O)[C@H](Cc1c[nH]cn1)NC(=O)[C@H](CCCNC(=N)N)NC(=O)[C@H](CC(C)C)NC(=O)[C@H](Cc1ccccc1)NC(=O)[C@H](Cc1c[nH]cn1)NC(=O)[C@H](C)NC(=O)[C@H](CC(C)C)NC(=O)[C@H](CCCNC(=N)N)NC(=O)[C@H](CCC(N)=O)NC(=O)[C@@H](NC(=O)[C@H](C)NC(=O)[C@@H]1CSSC[C@H](NC(=O)[C@@H](N)CCCCNC(=O)CC[C@H](NC(=O)CCCCCCCCCCCCCCCCCCC(=O)O)C(=O)O)C(=O)N[C@@H](CC(N)=O)C(=O)N[C@@H]([C@@H](C)O)C(=O)N[C@@H](C)C(=O)N[C@@H]([C@@H](C)O)C(=O)N1)[C@@H](C)O)C(=O)N1CCC[C@H]1C(=O)N[C@@H](CO)C(=O)N[C@@H](CO)C(=O)N[C@H](C(=O)N1CCC[C@H]1C(=O)N[C@H](C(=O)NCC(=O)N[C@@H](CO)C(=O)N[C@@H](CC(N)=O)C(=O)N[C@H](C(=O)N[C@@H](Cc1ccc(O)cc1)C(N)=O)[C@@H](C)O)C(C)C)[C@@H](C)O, also called compound 62) | 44 | 12.3 | 539 |

The next lines start with the values.

| hAmylin-R funct. EC50 [1] [pM] | Ratio hCT/hAmylin funct. (hCTR EC50 against hAmylin-R EC50) [2] | hCTR funct. EC50 [2] [pM] | Binder |
| --- | --- | --- | --- |
| 372 | 14 | 5220 | K([γGlu-C20 diacid])CNTATCATQRLAEFLRHSSPNFGAIPSSTNVGSRTY-NH2 (disulfide 2-7; N-terminus assumed; SMILES CC[C@H](C)[C@H](NC(=O)[C@H](C)NC(=O)CNC(=O)[C@H](Cc1ccccc1)NC(=O)[C@H](CC(N)=O)NC(=O)[C@@H]1CCCN1C(=O)[C@H](CO)NC(=O)[C@H](CO)NC(=O)[C@H](Cc1c[nH]cn1)NC(=O)[C@H](CCCNC(=N)N)NC(=O)[C@H](CC(C)C)NC(=O)[C@H](Cc1ccccc1)NC(=O)[C@H](CCC(=O)O)NC(=O)[C@H](C)NC(=O)[C@H](CC(C)C)NC(=O)[C@H](CCCNC(=N)N)NC(=O)[C@H](CCC(N)=O)NC(=O)[C@@H](NC(=O)[C@H](C)NC(=O)[C@@H]1CSSC[C@H](NC(=O)[C@@H](N)CCCCNC(=O)CC[C@H](NC(=O)CCCCCCCCCCCCCCCCCCC(=O)O)C(=O)O)C(=O)N[C@@H](CC(N)=O)C(=O)N[C@@H]([C@@H](C)O)C(=O)N[C@@H](C)C(=O)N[C@@H]([C@@H](C)O)C(=O)N1)[C@@H](C)O)C(=O)N1CCC[C@H]1C(=O)N[C@@H](CO)C(=O)N[C@@H](CO)C(=O)N[C@H](C(=O)N[C@@H](CC(N)=O)C(=O)N[C@H](C(=O)NCC(=O)N[C@@H](CO)C(=O)N[C@@H](CCCNC(=N)N)C(=O)N[C@H](C(=O)N[C@@H](Cc1ccc(O)cc1)C(N)=O)[C@@H](C)O)C(C)C)[C@@H](C)O, also called compound 51) |
| 27 | 20.1 | 542 | K([γGlu-C20 diacid])CNTATCATQRLAHFLRHSSPNFGAIPSSTNVGSHTY-NH2 (disulfide 2-7; N-terminus assumed; SMILES CC[C@H](C)[C@H](NC(=O)[C@H](C)NC(=O)CNC(=O)[C@H](Cc1ccccc1)NC(=O)[C@H](CC(N)=O)NC(=O)[C@@H]1CCCN1C(=O)[C@H](CO)NC(=O)[C@H](CO)NC(=O)[C@H](Cc1c[nH]cn1)NC(=O)[C@H](CCCNC(=N)N)NC(=O)[C@H](CC(C)C)NC(=O)[C@H](Cc1ccccc1)NC(=O)[C@H](Cc1c[nH]cn1)NC(=O)[C@H](C)NC(=O)[C@H](CC(C)C)NC(=O)[C@H](CCCNC(=N)N)NC(=O)[C@H](CCC(N)=O)NC(=O)[C@@H](NC(=O)[C@H](C)NC(=O)[C@@H]1CSSC[C@H](NC(=O)[C@@H](N)CCCCNC(=O)CC[C@H](NC(=O)CCCCCCCCCCCCCCCCCCC(=O)O)C(=O)O)C(=O)N[C@@H](CC(N)=O)C(=O)N[C@@H]([C@@H](C)O)C(=O)N[C@@H](C)C(=O)N[C@@H]([C@@H](C)O)C(=O)N1)[C@@H](C)O)C(=O)N1CCC[C@H]1C(=O)N[C@@H](CO)C(=O)N[C@@H](CO)C(=O)N[C@H](C(=O)N[C@@H](CC(N)=O)C(=O)N[C@H](C(=O)NCC(=O)N[C@@H](CO)C(=O)N[C@@H](Cc1c[nH]cn1)C(=O)N[C@H](C(=O)N[C@@H](Cc1ccc(O)cc1)C(N)=O)[C@@H](C)O)C(C)C)[C@@H](C)O, also called compound 66) |
| 40 | 17.9 | 715 | K([γGlu-C20 diacid])CNTATCATQRLAHFLRHSSPNFGAIPSSTNVGSNTY-NH2 (disulfide 2-7; N-terminus assumed; SMILES CC[C@H](C)[C@H](NC(=O)[C@H](C)NC(=O)CNC(=O)[C@H](Cc1ccccc1)NC(=O)[C@H](CC(N)=O)NC(=O)[C@@H]1CCCN1C(=O)[C@H](CO)NC(=O)[C@H](CO)NC(=O)[C@H](Cc1c[nH]cn1)NC(=O)[C@H](CCCNC(=N)N)NC(=O)[C@H](CC(C)C)NC(=O)[C@H](Cc1ccccc1)NC(=O)[C@H](Cc1c[nH]cn1)NC(=O)[C@H](C)NC(=O)[C@H](CC(C)C)NC(=O)[C@H](CCCNC(=N)N)NC(=O)[C@H](CCC(N)=O)NC(=O)[C@@H](NC(=O)[C@H](C)NC(=O)[C@@H]1CSSC[C@H](NC(=O)[C@@H](N)CCCCNC(=O)CC[C@H](NC(=O)CCCCCCCCCCCCCCCCCCC(=O)O)C(=O)O)C(=O)N[C@@H](CC(N)=O)C(=O)N[C@@H]([C@@H](C)O)C(=O)N[C@@H](C)C(=O)N[C@@H]([C@@H](C)O)C(=O)N1)[C@@H](C)O)C(=O)N1CCC[C@H]1C(=O)N[C@@H](CO)C(=O)N[C@@H](CO)C(=O)N[C@H](C(=O)N[C@@H](CC(N)=O)C(=O)N[C@H](C(=O)NCC(=O)N[C@@H](CO)C(=O)N[C@@H](CC(N)=O)C(=O)N[C@H](C(=O)N[C@@H](Cc1ccc(O)cc1)C(N)=O)[C@@H](C)O)C(C)C)[C@@H](C)O, also called compound 70) [N^ε1-[(4S)-4-carboxy-4-(19-carboxynonadecanoylamino)butanoyl]-[His14,Arg17,Pro21,Pro27]-h-amylin] |
